Results published in patent US6713265.
Where two headings read alike, the source gives them in different places. Each block holds one substance with its values, some of them ahead of it.

Tests used:
[1] = target: rat hypothalamic Y5 receptor (rat) (UniProt Q63634); assay: 125I-PYY displacement, COS-7 membranes
[2] = target: rat hypothalamic membranes (NPY/PYY binding sites); assay: 125I-PYY displacement, rat hypothalamic membranes
[3] = target: rat hypothalamic membranes (NPY/PYY binding sites); assay: 125I-PYY3-36 displacement, rat hypothalamic membranes
rat Y4 receptor (rat) = rat Y4 receptor (rat) (UniProt Q63447); assay: 125I-PYY displacement, COS-7 membranes
[4] = target: rat hypothalamic membranes (NPY/PYY binding sites); assay: 125I-PYY displacement, rat hypothalamic membranes, low-affinity part
[5] = target: rat hypothalamic membranes (NPY/PYY binding sites); assay: 125I-PYY3-36 displacement, rat hypothalamic membranes, low-affinity part
[6] = target: rat hypothalamic membranes (NPY/PYY binding sites); assay: 125I-PYY displacement, rat hypothalamic membranes, high-affinity part
[7] = target: rat hypothalamic membranes (NPY/PYY binding sites); assay: 125I-PYY3-36 displacement, rat hypothalamic membranes, high-affinity part
[8] = target: human Y5 receptor (human) (UniProt Q15761); assay: 125I-PYY displacement, COS-7 membranes
[9] = target: rat hypothalamic Y5 receptor (rat) (UniProt Q63634); assay: 125I-PYY displacement, COS-7 membranes; remark: listed apart in the source
[10] = target: human Y4 receptor (human) (UniProt P50391); assay: 125I-PYY displacement, COS-7 membranes
[11] = target: canine Y5 receptor (canine) (UniProt O62729); assay: 125I-PYY displacement, COS-7 membranes
[12] = target: rat hypothalamic Y5 receptor (rat) (UniProt Q63634); assay: 125I-PYY displacement, COS-7 membranes; remark: listed apart in the source
[13] = target: human Y1 receptor (human) (UniProt P25929); assay: 125I-PYY displacement, COS-7 membranes
[14] = target: human Y2 receptor (human) (UniProt P49146); assay: 125I-PYY displacement, COS-7 membranes
[15] = target: human Y5 receptor (human) (UniProt Q15761); assay: 125I-PYY3-36 displacement, LM(tk-) membranes
rat Y2 receptor (rat) = rat Y2 receptor (rat) (UniProt Q9ERC0); assay: 125I-PYY displacement, COS-7 membranes
rat Y1 receptor (rat) = rat Y1 receptor (rat) (UniProt P21555); assay: 125I-PYY displacement, COS-7 membranes
[16] = target: rat hypothalamic Y5 receptor (rat) (UniProt Q63634); assay: cell-based or functional assay
[17] = target: human Y5 receptor (human) (UniProt Q15761); assay: 125I-PYY displacement, LM(tk-) membranes
[18] = target: human Y5 receptor (human) (UniProt Q15761); assay: 125I-PYY displacement, COS-7 membranes; remark: listed apart in the source
[19] = target: human Y5 receptor (human) (UniProt Q15761); assay: cell-based or functional assay

Chain of salmon PP (peptide) (P69092 whole entry): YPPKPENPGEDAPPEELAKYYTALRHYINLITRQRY
Chain of rat hypothalamic Y5 receptor (rat) (Q63634 other isoform, or with tags, fused parts or gaps): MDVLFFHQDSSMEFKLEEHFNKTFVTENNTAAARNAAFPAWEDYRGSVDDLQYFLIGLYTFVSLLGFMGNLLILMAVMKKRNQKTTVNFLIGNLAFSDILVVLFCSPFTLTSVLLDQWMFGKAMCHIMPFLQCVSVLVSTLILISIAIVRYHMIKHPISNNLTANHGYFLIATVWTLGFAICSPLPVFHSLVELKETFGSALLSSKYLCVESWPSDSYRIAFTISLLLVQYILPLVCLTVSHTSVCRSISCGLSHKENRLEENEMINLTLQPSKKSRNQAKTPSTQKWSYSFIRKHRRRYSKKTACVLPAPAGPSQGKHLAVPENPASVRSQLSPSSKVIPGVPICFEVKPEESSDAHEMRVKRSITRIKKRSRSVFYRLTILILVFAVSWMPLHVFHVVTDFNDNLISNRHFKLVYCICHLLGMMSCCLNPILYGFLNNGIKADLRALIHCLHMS
Chain of human Y5 receptor (human) (Q15761 other isoform, or with tags, fused parts or gaps): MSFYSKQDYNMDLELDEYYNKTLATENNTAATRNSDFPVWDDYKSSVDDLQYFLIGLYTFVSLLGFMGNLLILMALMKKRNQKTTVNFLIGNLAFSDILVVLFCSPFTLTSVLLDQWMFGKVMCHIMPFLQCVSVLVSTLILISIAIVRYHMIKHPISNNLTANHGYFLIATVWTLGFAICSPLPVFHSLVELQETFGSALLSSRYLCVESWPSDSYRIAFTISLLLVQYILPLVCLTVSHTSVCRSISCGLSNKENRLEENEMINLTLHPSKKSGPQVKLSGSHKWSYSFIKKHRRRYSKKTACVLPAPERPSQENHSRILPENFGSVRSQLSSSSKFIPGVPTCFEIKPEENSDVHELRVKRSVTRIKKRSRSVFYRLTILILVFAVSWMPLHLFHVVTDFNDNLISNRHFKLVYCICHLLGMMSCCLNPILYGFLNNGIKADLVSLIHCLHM
Chain of rat Y4 receptor (rat) (Q63447 whole entry): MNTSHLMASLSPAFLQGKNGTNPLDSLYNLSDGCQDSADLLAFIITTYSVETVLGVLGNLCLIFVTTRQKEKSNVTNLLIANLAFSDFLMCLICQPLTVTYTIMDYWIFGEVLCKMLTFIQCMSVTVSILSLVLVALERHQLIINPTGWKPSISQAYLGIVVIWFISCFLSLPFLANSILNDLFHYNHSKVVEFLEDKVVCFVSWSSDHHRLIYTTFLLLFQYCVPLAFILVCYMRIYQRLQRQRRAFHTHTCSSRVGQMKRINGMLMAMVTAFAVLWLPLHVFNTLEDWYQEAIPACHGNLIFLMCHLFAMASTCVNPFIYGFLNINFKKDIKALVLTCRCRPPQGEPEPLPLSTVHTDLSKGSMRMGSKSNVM
Chain of human Y1 receptor (human) (P25929 whole entry): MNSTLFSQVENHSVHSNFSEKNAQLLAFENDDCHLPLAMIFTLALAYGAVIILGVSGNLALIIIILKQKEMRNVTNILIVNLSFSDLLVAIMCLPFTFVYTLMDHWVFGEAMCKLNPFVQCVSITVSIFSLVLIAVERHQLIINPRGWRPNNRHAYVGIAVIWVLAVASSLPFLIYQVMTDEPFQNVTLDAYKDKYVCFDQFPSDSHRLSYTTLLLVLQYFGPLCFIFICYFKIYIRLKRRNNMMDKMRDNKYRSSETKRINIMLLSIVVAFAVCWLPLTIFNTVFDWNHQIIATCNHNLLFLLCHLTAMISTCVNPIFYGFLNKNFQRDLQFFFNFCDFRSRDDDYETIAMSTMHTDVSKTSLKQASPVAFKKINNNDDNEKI
Chain of human Y4 receptor (human) (P50391 whole entry): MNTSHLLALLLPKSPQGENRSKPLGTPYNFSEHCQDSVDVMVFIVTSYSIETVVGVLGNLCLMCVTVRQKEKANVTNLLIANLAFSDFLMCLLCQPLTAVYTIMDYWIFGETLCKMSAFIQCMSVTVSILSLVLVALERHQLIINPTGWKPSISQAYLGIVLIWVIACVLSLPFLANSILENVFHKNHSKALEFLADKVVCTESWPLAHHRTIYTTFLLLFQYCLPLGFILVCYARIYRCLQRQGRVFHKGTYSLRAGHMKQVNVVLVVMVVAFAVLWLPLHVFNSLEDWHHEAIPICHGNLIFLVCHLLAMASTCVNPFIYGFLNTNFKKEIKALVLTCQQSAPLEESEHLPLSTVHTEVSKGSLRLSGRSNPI
Chain of rat Y1 receptor (rat) (P21555 whole entry): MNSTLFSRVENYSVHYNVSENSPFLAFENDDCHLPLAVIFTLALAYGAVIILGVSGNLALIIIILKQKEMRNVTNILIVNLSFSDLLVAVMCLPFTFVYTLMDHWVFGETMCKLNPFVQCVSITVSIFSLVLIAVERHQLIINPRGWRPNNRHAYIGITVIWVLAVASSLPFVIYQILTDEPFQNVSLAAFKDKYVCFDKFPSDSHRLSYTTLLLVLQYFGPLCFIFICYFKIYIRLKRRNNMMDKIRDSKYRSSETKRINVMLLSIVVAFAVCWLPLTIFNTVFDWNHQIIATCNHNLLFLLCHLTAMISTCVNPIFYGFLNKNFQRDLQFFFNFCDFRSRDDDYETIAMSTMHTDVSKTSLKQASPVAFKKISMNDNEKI
Chain of rat Y2 receptor (rat) (Q9ERC0 entry or part of it): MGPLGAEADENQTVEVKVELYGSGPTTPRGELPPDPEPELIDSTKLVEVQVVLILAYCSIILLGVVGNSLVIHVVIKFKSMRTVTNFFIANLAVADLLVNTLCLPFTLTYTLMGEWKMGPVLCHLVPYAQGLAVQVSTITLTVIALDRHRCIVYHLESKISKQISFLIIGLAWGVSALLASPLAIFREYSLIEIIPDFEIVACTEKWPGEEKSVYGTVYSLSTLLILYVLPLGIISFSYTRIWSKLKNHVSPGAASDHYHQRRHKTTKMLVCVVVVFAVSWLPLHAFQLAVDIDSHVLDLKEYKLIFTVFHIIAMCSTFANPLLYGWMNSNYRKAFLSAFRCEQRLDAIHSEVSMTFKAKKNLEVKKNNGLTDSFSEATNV
Chain of human Y2 receptor (human) (P49146 whole entry): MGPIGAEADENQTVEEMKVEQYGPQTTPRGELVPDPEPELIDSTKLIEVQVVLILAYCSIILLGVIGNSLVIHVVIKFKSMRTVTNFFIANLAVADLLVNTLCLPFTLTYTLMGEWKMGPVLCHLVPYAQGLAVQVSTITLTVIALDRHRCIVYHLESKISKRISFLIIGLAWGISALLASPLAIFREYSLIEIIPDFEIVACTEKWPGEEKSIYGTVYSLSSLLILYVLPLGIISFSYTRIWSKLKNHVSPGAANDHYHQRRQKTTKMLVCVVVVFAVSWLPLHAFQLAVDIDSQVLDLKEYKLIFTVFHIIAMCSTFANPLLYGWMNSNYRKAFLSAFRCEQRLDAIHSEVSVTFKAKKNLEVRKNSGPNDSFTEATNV
Chain of canine Y5 receptor (canine) (O62729 other isoform, or with tags, fused parts or gaps): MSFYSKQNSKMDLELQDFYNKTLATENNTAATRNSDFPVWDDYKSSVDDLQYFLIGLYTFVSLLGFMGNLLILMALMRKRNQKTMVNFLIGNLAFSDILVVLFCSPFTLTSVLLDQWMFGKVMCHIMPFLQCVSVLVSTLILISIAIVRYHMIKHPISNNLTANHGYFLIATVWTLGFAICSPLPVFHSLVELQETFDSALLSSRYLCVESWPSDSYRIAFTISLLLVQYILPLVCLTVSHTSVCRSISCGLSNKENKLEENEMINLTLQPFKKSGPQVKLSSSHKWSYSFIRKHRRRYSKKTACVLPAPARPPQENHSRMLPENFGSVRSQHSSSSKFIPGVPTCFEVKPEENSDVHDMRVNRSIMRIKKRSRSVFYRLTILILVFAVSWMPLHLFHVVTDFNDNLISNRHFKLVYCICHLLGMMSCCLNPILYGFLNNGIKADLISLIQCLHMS

Substance: W(nor-L)RF-amide (peptide)
Ki [1]: 8700 nM

Substance: human NPY2-36, P01303 30-64 (peptide; other documents disagree on this pair)
Ki (rat Y4 receptor (rat)): 5 nM

Substance: human [Leu^31, Pro^34]NPY (from UniProt P01303 29-64) (peptide)
% NPY-produced displacement [4]: 56%
IC50 [4]: 340 nM
% NPY-produced displacement [5]: 73%
IC50 [5]: 250 nM
% NPY-produced displacement [6]: 44%
IC50 [6]: 0.21 nM
% NPY-produced displacement [7]: 27%
IC50 [7]: 0.38 nM

Substance: porcine C2-NPY (peptide)
Ki [8]: 370 nM
Ki [9]: 260 nM
Ki [10]: 120 nM
Ki [11]: 300 nM
Ki [12]: 470 nM
Ki [13]: 79 nM
Ki [14]: 3.5 nM
Ki [15]: 220 nM
Ki (rat Y4 receptor (rat)): 22 nM
Ki (rat Y2 receptor (rat)): 2.6 nM
Ki (rat Y1 receptor (rat)): 140 nM
EC50, inhibition of forskolin-stimulated cAMP accumulation, 293 cells [16]: 240 nM
Ki [17]: 260 nM

Substance: porcine NPY3-36, P01304 12-45 (peptide; other documents disagree on this pair)
Ki (rat Y4 receptor (rat)): 36 nM

Substance: rat/human NPY (from UniProt P01303 29-64) (peptide)
% NPY-produced displacement [2]: 100%
IC50 [2]: 0.82 nM
% NPY-produced displacement [3]: 100%

Other lines, results leading:

% NPY-produced displacement [2]: 100%
IC50 [2]: 2.3 nM
% NPY-produced displacement [3]: 100%
IC50 [3]: 1.2 nM
Substance: human NPY2-36 (from UniProt P01303 30-64) (peptide)

% NPY-produced displacement [2]: 20%
Substance: human PP (from UniProt P01298 30-65) (peptide)

% NPY-produced displacement [2]: 100%
% NPY-produced displacement [3]: 100%
IC50 [3]: 0.29 nM
Substance: human PYY (from UniProt P10082 29-64) (peptide)

Ki (rat Y4 receptor (rat)): 1.7 nM
Substance: rat/human NPY, P01303 29-64 (peptide; C-terminal amide; other documents disagree on this pair)

Ki [8]: 0.27 nM
Ki [10]: 3.2 nM
Ki [18]: 0.46 nM
Ki [12]: 0.31 nM
Ki [13]: 0.11 nM
Ki [14]: 0.17 nM
Ki [15]: 0.63 nM
Ki (rat Y4 receptor (rat)): 3 nM
Ki (rat Y2 receptor (rat)): 0.16 nM
Ki [1]: 0.33 nM
Ki (rat Y1 receptor (rat)): 0.3 nM
% inhibition relative to human NPY, cAMP, LM(tk-) cells [19]: 96%
EC50, inhibition of forskolin-stimulated cAMP accumulation, LM(tk-) cells [19]: 4.5 nM
EC50, inhibition of forskolin-stimulated cAMP accumulation, 293 cells [16]: 0.92 nM
Substance: salmon PP (peptide)
